Laboratory results: patent publication US20240034800A1 (MEDYTOX, published 2024)
Where “and” joins values, the source holds several entries; their conditions need not be identical. Identical values can stand only once.

T1: Mouse HVEM-Fc (mouse, UniProt Q80WM9)
T1 construct: part fused to Fc; also called mouse HVEM-mFc; mHVEM
T1 sequence (fusion chain, looked up): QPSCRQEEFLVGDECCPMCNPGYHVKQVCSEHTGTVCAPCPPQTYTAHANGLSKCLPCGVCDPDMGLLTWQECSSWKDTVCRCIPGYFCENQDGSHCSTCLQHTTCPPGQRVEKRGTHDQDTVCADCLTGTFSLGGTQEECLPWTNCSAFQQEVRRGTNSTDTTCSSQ

T2: Monkey HVEM-Fc (Macaca fascicularis, UniProt A0A2K5W0R1)
T2 construct: part fused to Fc; also called cynomolgus monkey HVEM-hFc
T2 sequence (fusion chain): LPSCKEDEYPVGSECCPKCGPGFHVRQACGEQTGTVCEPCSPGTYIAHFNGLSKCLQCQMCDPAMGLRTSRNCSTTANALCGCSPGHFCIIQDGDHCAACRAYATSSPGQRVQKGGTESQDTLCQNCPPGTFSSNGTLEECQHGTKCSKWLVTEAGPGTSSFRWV

T3: human HVEM-Fc protein (human, UniProt Q92956 39-202, limits assumed)
T3 construct: not shown: Fc
T3 sequence (looked up): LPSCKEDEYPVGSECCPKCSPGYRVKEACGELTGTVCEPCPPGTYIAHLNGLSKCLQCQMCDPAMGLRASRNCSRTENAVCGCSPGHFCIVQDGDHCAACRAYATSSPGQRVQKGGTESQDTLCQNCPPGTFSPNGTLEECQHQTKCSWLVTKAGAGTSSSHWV


Key:
Mouse HVEM-Fc [1] = molecular target: T1, Mouse HVEM-Fc; test: ELISA, coated mouse HVEM-mFc, anti-human IgG4-HRP
Description: (§1) The binding ability of the full-size human antibody to HVEM was analyzed using an ELISA testing method. 0.2 μg/ml of each of human HVEM-hFc, cynomolgus monkey HVEM-hFc, and mouse HVEM-mFc proteins was coated on a 96-half-well plate for immunosorbent assay. To inhibit non-specific binding, reaction was carried out in phosphate buffered saline (PBS) containing 3% bovine serum albumin (BSA) for 1 hour, followed by treatment with serially diluted antibodies for 1 hour. To measure the amounts of the bound antibodies, horse radish peroxidase (HRP)-conjugated anti-human IgG4 antibody was used, and for the activity of HRP, a color reaction was induced using a 3,3′,5,5′-tetramethylbenzidine (TMB) substrate solution, and the reaction was terminated with 1N sulfuric acid. […] In the middle of each step, washing was performed three times using PBS (PBST) containing 0.1% Triton X-100. The binding ability of the antibodies was derived using SigmaPlot.

Mouse HVEM-Fc [2] = molecular target: T1, Mouse HVEM-Fc; test: ELISA, coated mouse HVEM-mFc 0.2 ug/ml, anti-human IgG4-HRP, SigmaPlot fit
Description: as §1

Monkey HVEM-Fc = molecular target: T2, Monkey HVEM-Fc; test: ELISA, coated cynomolgus monkey HVEM-hFc, anti-human IgG4-HRP
Description: as §1

human HVEM-Fc protein [3] = molecular target: T3, human HVEM-Fc protein; test: ELISA, coated human HVEM-hFc, anti-human IgG4-HRP
Description: as §1

human HVEM-Fc protein [4] = molecular target: T3, human HVEM-Fc protein; test: Octet BLI
human HVEM-Fc protein [5] = molecular target: T3, human HVEM-Fc protein; test: Octet BLI (column kdis)
human HVEM-Fc protein [6] = molecular target: T3, human HVEM-Fc protein; test: ELISA, coated human HVEM-hFc 0.2 ug/ml, anti-human IgG4-HRP, SigmaPlot fit
Description: as §1

human HVEM-Fc protein [7] = molecular target: T3, human HVEM-Fc protein; test: flow cytometry competition: human HVEM-Fc 1 ug/ml on BTLA-expressing Jurkat cells, antibody 10 or 100 nM; blocked ligand BTLA
Description: For flow cytometry, the stained cell lines were fixed on ice for 20 minutes using PBS containing 2% formaldehyde and stored in a refrigerator until flow cytometry.

Binder	binding affinity (ELISA fit; table in pM) (Mouse HVEM-Fc [1])	binding affinity (ELISA fit) (Mouse HVEM-Fc [2])	binding affinity (ELISA fit; table in pM) (Monkey HVEM-Fc)	binding affinity (ELISA fit; table in pM) (human HVEM-Fc protein [3])	Kd (human HVEM-Fc protein [4])	kon (human HVEM-Fc protein [4])	koff (human HVEM-Fc protein [5])	binding affinity (ELISA fit) (human HVEM-Fc protein [6])	binding result (human HVEM-Fc protein [7])
HVEM001 (antibody, human IgG4 S228P, kappa, V domains shown) VH: EVQLLESGGGLVQPGGSLRLSCAASGFTFSNYAMHWVRQAPGKGLEWVSNINPSGGSTTYAQEFEDRFTISRDNSKNTLYLQMNSLRAEDTAVYYCATRSRQDSWGYFDIWGQGTLVTVSS VL: EIVLTQSPGTLSLSPGERATLSCRASRSISNYLAWYQQKPGQAPRLLIYGASTRATGIPDRFSGSGSGTDFTLTISRLEPEDFAVYYCQQYGSSPPLTFGQGTKVEIKR	228 pM	151 pM	341 pM	32.8 pM	0.0263 nM	287000 M⁻¹ s⁻¹	7.55e-06 s⁻¹	22 pM	–
HVEM017 (antibody, human IgG4 S228P, kappa, V domains shown, also called HVEM0017) VH: EVQLLESGGGLVQPGGSLRLSCAASGFTFSTNYMSWVRQAPGKGLEWVSLISYSGSNKYYADSVKGRFTISHDNSKNTLYLQMNSLRAEDTAVYYCARGRGNTISGTFDLWGQGTLVTVSS VL: EIVLTQSPGTLSLSPGERATLSCRASRSVGKYLAWYQQKPGQAPRLLIYSASTLSSGIPDRFSGSGSGTDFTLTISRLEPEDFAVYYCQQYGSSPPITFGQGTKVEIKR	–	112 pM	–	–	–	–	–	21.5 pM	–
HVEM004 (antibody, human IgG4 S228P, kappa, V domains shown) VH: EVQLLESGGGLVQPGGSLRLSCAASGFTFSSYAMSWVRQAPGKGLEWVSSISGSGGKTYYADSVRGRFTISRDNSKNTLYLQMNSLRAEDTAVYYCAKGVGYTTSGRFDYWGQGTLVTVSS VL: EIVLTQSPGTLSLSPGERATLSCRASRSISSYLAWYQQKPGQAPRLLIYGVSTRATGIPDRFSGSGSGTDFTLTISRLEPEDFAVYYCQQYGSWPPFTFGQGTKVEIKR	–	–	–	–	–	–	–	–	binds
HVEM018 (antibody, human IgG4 S228P, kappa, V domains shown) VH: EVQLLESGGGLVQPGGSLRLSCAASGFTFSSYSMNWVRQAPGKGLEWVSAISGSGGGTYSADSVKGRFTISRDNSKNTLYLQMNSLRAEDTAVYYCARGKAYGYFDYWGQGTLVTVSS VL: EIVLTQSPGTLSLSPGERATLSCRASRSVGKYLAWYQQKPGQAPRLLIYAASTLQSGIPDRFSGSGSGTDFTLTISRLEPEDFAVYYCQQYGSSPPVIFGQGTKVEIKR	–	158 pM	–	–	–	–	–	25.9 pM	–
HVEM030 (antibody, human IgG4 S228P, kappa, V domains shown) VH: EVQLLESGGGLVQPGGSLRLSCAASGFTFSGYYWTWVRQAPGKGLEWVSTISASGDSTYYADSVKGRFTISRDNSKNTLYLQMNSLRAEDTAVYYCAHDRTFGYFDYWGQGTLVTVSS VL: EIVLTQSPGTLSLSPGERATLSCRASRSVGKYLAWYQQKPGQAPRLLIYAASSLQSGIPDRFSGSGSGTDFTLTISRLEPEDFAVYYCQQYGSSPPITFGQGTKVEIKR	–	16.6 pM	–	–	–	–	–	16.1 pM	–
HVEM032 (antibody, human IgG4 S228P, kappa, V domains shown) VH: EVQLLESGGGLVQPGGSLRLSCAASGFTFSNYAIHWVRQAPGKGLEWVSTISSPGSTINYADSVKGRFTISRDNSKNTLYLQMNSLRAEDTAVYYCASGYLYPAMDVWGQGTLVTVSS VL: EIVLTQSPGTLSLSPGERATLSCRASRSVGKYLSWYQQKPGQAPRLLIYGASKLQSGIPDRFSGSGSGTDFTLTISRLEPEDFAVYYCQQYGSWPPFTFGQGTKVEIKR	–	114 pM	–	–	–	–	–	16.9 pM	–
HVEM039 (antibody, human IgG4 S228P, kappa, V domains shown) VH: EVQLLESGGGLVQPGGSLRLSCAASGFTFSSYGMNWVRQAPGKGLEWVSIINPSGDTTTYAQKFQGRFTISRDNSKNTLYLQMNSLRAEDTAVYYCARGRGAFDYWGQGTLVTVSS VL: EIVLTQSPGTLSLSPGERATLSCRASRSVGKYLAWYQQKPGQAPRLLIYGATSRATGIPDRFSGSGSGTDFTLTISRLEPEDFAVYYCQQYGSSPPVTFGQGTKVEIKR	–	334 pM	–	–	–	–	–	19.5 pM	–
HVEM040 (antibody, human IgG4 S228P, kappa, V domains shown) VH: EVQLLESGGGLVQPGGSLRLSCAASGFTFSNYGMSWVRQAPGKGLEWVSSIYYSGDTYYNPSLESRFTISRDNSKNTLYLQMNSLRAEDTAVYYCASGSNAFDIWGQGTLVTVSS VL: EIVLTQSPGTLSLSPGERATLSCRASRSVGKYLAWYQQKPGQAPRLLIYGASSRTTGIPDRFSGSGSGTDFTLTISRLEPEDFAVYYCQQYGSSPPVTFGQGTKVEIKR	–	126 pM	–	–	–	–	–	20 pM	–
HVEM041 (antibody, human IgG4 S228P, kappa, V domains shown) VH: EVQLLESGGGLVQPGGSLRLSCAASGFTFSSYAMSWVRQAPGKGLEWVSEISQSGSSNYNPSLKSRFTISRDNSKNTLYLQMNSLRAEDTAVYYCATGRWRFDYWGQGTLVTVSS VL: EIVLTQSPGTLSLSPGERATLSCRASRSVGKYLAWYQQKPGQAPRLLIYGASTRATGIPDRFSGSGSGTDFTLTISRLEPEDFAVYYCQQYGSSPPVTFGQGTKVEIKR	–	141 pM	–	–	–	–	–	20.1 pM	–
HVEM011 (antibody, human IgG4 S228P, kappa, V domains shown, Full-size human IgG4 (S228P) kappa antibody made in ExpiCHO-S; human IL-2 signal peptide is cleaved and left out; also called HVEM011 antibody) VH: EVQLLESGGGLVQPGGSLRLSCAASEFTFSSYAMHWVRQAPGKGLEWVSSITSASSYIDYADSVKGRFTISRDNSKNTLYLQMNSLRAEDTAVYYCARGTRGLFDHWGQGTLVTVSS VL: EIVLTQSPGTLSLSPGERATLSCRASRSVGKYLAWYQQKPGQAPRLLIYLGSNRASGIPDRFSGSGSGTDFTLTISRLEPEDFAVYYCQQYGSSPPITFGQGTKVEIKR	203 pM	219 pM	65.9 pM	25.9 pM	0.0225 nM and 0.0146 nM	425000 M⁻¹ s⁻¹ and 598000 M⁻¹ s⁻¹	9.53e-06 s⁻¹ and 8.75e-06 s⁻¹	23.4 pM	–
HVEM021 (antibody, human IgG4 S228P, kappa, V domains shown, Full-size human IgG4 (S228P) kappa antibody made in ExpiCHO-S; human IL-2 signal peptide is cleaved and left out; also called HVEM021 antibody) VH: EVQLLESGGGLVQPGGSLRLSCAASGFTFSTFAMHWVRQAPGKGLEWVSSIYPSGNTHYKPSLKSRFTISRDNSKNTLYLQMNSLRAEDTAVYYCARRHPGGGWIFDYWGQGTLVTVSS VL: EIVLTQSPGTLSLSPGERATLSCRASRSVGKYLAWYQQKPGQAPRLLIYGASTRATGIPDRFSGSGSGTDFTLTISRLEPEDFAVYYCQQYGSSPPVTFGQGTKVEIKR	55.6 pM	–	61.8 pM	32.5 pM	0.0344 nM	471000 M⁻¹ s⁻¹	1.62e-06 s⁻¹	–	–
